Series [1] has as its target T1, hITIP0037-G1T4k.one//VHn-G1T4h.one.H435R.
T1 chain 1: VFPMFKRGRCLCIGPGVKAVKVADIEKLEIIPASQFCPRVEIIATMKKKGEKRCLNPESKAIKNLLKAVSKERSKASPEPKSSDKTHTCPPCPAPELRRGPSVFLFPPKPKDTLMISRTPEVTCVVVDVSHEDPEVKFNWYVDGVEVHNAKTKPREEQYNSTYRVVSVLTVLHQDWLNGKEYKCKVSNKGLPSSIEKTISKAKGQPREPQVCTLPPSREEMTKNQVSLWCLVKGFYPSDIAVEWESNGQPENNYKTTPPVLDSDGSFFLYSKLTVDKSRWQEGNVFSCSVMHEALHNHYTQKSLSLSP
T1 chain 2: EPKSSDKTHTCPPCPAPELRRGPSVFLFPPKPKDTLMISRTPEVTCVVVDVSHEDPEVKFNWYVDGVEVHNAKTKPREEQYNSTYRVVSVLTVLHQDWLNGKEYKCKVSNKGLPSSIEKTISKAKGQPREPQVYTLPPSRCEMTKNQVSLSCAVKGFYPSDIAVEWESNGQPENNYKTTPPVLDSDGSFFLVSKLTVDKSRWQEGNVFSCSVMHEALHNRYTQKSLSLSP

Series [2] deals with T2, hCXCL11.0022-G1T4k.one//VHn-G1T4h.one.H435R.
T2 chain 1: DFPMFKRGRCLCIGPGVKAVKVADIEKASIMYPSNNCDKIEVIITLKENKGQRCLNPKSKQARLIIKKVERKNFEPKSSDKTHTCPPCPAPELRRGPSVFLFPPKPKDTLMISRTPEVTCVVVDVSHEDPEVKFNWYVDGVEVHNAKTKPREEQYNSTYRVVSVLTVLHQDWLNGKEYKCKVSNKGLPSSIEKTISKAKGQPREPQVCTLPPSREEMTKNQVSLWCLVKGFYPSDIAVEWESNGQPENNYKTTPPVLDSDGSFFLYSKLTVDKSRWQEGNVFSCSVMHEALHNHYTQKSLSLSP
T2 chain 2: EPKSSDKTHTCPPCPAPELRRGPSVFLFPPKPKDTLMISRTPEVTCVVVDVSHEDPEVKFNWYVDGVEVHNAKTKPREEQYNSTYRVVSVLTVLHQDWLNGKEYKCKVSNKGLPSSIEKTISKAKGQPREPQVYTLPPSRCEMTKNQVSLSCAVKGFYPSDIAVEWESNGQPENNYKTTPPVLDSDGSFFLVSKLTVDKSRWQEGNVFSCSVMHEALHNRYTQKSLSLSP

Series [3] has as its target T3, hITIP-G1T4k.one//VHn-G1T4h.one.H435R.
T3 chain 1: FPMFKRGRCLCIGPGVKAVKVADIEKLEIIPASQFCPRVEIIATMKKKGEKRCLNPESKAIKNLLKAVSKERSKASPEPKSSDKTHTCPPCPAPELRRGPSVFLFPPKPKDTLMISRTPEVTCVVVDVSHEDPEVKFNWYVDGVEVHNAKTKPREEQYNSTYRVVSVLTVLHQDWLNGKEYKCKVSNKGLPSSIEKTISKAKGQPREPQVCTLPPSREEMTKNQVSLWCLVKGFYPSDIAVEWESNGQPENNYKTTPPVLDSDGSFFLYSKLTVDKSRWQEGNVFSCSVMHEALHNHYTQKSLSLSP
T3 chain 2: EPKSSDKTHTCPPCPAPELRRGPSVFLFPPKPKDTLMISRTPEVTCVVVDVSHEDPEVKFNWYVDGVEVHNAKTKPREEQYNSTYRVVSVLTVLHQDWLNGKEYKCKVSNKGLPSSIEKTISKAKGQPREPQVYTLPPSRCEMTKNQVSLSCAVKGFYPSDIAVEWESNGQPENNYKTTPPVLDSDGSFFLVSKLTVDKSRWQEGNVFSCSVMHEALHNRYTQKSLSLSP

The target in series [4] is T4, hITIP0036-G1T4k.one//VHn-G1T4h.one.H435R.
T4 chain 1: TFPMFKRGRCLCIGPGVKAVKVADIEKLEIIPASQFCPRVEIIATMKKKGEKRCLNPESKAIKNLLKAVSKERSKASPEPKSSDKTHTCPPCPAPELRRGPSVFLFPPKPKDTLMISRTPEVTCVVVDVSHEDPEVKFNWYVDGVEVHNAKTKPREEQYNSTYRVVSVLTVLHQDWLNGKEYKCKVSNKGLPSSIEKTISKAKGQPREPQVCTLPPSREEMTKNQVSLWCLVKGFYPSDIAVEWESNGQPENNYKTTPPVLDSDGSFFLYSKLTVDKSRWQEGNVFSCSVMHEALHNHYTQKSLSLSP
T4 chain 2: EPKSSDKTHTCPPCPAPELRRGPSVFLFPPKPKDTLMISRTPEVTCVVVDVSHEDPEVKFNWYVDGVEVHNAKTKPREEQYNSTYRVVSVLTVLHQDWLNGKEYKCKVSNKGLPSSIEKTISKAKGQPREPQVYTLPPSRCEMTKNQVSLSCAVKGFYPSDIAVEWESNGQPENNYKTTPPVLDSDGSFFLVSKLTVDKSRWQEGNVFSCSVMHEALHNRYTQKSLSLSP

For series [5], the target named is T5, hITIP0030-G1T4k.one//VHn-G1T4h.one.H435R.
T5 chain 1: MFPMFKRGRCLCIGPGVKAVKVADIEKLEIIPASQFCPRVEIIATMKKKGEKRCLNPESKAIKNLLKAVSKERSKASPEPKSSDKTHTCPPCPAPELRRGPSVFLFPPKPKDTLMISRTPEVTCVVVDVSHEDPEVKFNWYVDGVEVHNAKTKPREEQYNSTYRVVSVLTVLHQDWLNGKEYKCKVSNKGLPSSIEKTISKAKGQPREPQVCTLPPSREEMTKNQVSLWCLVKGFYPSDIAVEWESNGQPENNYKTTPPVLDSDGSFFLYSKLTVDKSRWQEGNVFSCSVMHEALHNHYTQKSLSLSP
T5 chain 2: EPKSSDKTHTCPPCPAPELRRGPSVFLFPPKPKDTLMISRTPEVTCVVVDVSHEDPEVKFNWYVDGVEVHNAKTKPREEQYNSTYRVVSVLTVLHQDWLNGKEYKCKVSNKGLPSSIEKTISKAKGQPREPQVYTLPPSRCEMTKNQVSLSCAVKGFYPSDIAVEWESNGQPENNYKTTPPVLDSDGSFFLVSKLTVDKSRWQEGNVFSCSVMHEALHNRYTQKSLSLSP

In series [6] the target is T6, hITIP0025-G1T4k.one//VHn-G1T4h.one.H435R.
T6 chain 1: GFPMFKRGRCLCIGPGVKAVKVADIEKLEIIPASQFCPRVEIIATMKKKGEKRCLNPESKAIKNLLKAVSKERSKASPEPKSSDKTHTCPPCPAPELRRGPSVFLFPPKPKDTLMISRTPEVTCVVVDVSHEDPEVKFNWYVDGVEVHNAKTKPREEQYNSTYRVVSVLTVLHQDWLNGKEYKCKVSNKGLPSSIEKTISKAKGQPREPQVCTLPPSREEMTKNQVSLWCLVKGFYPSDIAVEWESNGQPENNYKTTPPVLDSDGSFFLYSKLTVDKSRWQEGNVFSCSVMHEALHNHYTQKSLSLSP
T6 chain 2: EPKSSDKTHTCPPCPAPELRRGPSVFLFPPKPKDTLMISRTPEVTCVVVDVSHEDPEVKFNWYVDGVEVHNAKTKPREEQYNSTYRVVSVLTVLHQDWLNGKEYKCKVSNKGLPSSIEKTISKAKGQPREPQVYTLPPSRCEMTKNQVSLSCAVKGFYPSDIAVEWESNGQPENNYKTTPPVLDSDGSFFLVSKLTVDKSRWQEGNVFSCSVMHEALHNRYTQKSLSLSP

Series [7] addresses T7, hCXCL11.0021-G1T4k.one//VHn-G1T4h.one.H435R.
T7 chain 1: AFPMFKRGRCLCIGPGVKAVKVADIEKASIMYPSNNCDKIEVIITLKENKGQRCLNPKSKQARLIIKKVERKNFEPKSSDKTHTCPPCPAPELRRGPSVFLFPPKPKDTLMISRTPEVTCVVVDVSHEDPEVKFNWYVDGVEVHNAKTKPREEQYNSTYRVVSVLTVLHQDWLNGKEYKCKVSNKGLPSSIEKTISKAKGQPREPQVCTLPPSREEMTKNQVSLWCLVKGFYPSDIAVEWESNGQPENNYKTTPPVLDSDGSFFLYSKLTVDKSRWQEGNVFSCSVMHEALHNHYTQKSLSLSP
T7 chain 2: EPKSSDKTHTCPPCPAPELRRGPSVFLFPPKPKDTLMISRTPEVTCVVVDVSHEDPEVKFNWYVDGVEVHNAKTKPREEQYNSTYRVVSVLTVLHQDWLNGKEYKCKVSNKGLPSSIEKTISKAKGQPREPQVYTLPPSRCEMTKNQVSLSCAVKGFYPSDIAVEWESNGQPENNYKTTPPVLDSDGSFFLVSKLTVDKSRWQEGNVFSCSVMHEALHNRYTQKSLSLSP

Series [8] addresses T8, hCXCL11.0031-G1T4k.one//VHn-G1T4h.one.H435R.
T8 chain 1: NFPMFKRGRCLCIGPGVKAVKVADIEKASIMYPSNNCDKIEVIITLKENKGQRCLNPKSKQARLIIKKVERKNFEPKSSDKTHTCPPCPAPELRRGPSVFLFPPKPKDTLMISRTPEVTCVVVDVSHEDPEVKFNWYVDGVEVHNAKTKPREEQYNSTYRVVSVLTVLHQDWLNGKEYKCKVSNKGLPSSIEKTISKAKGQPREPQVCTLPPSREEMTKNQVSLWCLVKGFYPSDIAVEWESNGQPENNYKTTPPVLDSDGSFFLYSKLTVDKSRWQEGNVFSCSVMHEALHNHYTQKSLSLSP
T8 chain 2: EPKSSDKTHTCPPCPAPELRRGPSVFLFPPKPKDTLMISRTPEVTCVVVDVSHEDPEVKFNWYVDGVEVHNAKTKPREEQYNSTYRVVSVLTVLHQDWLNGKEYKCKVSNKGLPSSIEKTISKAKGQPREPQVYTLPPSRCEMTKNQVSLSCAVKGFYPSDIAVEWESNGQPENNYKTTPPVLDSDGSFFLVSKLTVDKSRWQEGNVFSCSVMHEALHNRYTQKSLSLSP

B1: human dipeptidyl peptidase IV (human DPPIV, hDPPIV) (Biolegend, 764102) (protein)
chain: NKGTDDATADSRKTYTLTDYLKNTYRLKLYSLRWISDHEYLYKQENNILVFNAEYGNSSVFLENSTFDEFGHSINDYSISPDGQFILLEYNYVKQWRHSYTASYDIYDLNKRQLITEERIPNNTQWVTWSPVGHKLAYVWNNDIYVKIEPNLPSYRITWTGKEDIIYNGITDWVYEEEVFSAYSALWWSPNGTFLAYAQFNDTEVPLIEYSFYSDESLQYPKTVRVPYPKAGAVNPTVKFFVVNTDSLSSVTNATSIQITAPASMLIGDHYLCDVTWATQERISLQWLRRIQNYSVMDICDYDESSGRWNCLVARQHIEMSTTGWVGRFRPSEPHFTLDGNSFYKIISNEEGYRHICYFQIDKKDCTFITKGTWEVIGIEALTSDYLYYISNEYKGMPGGRNLYKIQLSDYTKVTCLSCELNPERCQYYSVSFSKEAKYYQLRCSGPGLPLYTLHSSVNDKGLRVLEDNSALDKMLQNVQMPSKKLDFIILNETKFWYQMILPPHFDKSKKYPLLLDVYAGPCSQKADTVFRLNWATYLASTENIIVASFDGRGSGYQGDKIMHAINRRLGTFEVEDQIEAARQFSKMGFVDNKRIAIWGWSYGGYVTSMVLGSGSGVFKCGIAVAPVSRWEYYDSVYTERYMGLPTPEDNLDHYRNSTVMSRAENFKQVEYLLIHGTADDNVHFQQSAQISKALVDVGVDFQAMWYTDEDHGIASSTAHQHIYTHMSHFIKQCFSLP
As to B1, the “cleavage by hDPPIV (LC/MS mass)” value is “showed no mass change suggestive of peptide bond cleavage by hDPPIV treatment” in series [1]; “showed no mass change suggestive of peptide bond cleavage by hDPPIV treatment” in series [2]; “DPPIV treatment reduced each of the masses” in series [3]; “showed no mass change suggestive of peptide bond cleavage by hDPPIV treatment” in series [4]; “showed no mass change suggestive of peptide bond cleavage by hDPPIV treatment” in series [5]; “showed no mass change suggestive of peptide bond cleavage by hDPPIV treatment” in series [6]. For the same protein, the “cleavage by hDPPIV (LC/MS mass)” value in series [7] and in series [8] was “showed no mass change suggestive of peptide bond cleavage by hDPPIV treatment” throughout.

The values are drawn from patent US20260217779.
